These results are taken from the supplement of paper PMC10567573.

B1: MLL5 (parent)
chain: DCMGIDRQHIPDTYLCERCQPRNL
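Note: lentivirally expressed fusions sorted by FACS into six bins by GFP to DsRed ratio, PSI derived from sequencing read proportions per bin multiplied by bin number.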

Variants of B1 are the subject of the data set. Put plainly: protein stability index of a GFP-peptide fusion (GPS, HEK-293T) (PSI 1-6); higher = more stable. The note with it: c terminus: a fixed tail appended.
For the variant DCMGIDRQHIPDTYLCERPQPRNL [C19P], the protein stability index came to 4.55.
Then DCMGIDRQHIPDTYLCERKQPRNL [C19K], with 3.67; and DCMGIDRQHIPDTYLCERNQPRNL [C19N], with 4.06.
In the case of DCMGIDRQHIPDTYLCERYQPRNL [C19Y], the protein stability index was 2.8.
Consider DCDGIDRQHIPDTYLCERCQPRNL [M3D], for which the protein stability index worked out at 3.75.
As for DCRGIDRQHIPDTYLCERCQPRNL [M3R], the protein stability index worked out at 2.61.
DCNGIDRQHIPDTYLCERCQPRNL [M3N]: the protein stability index was determined as 2.88.
With DCLGIDRQHIPDTYLCERCQPRNL [M3L], the protein stability index stood at 2.89.
As to DCVGIDRQHIPDTYLCERCQPRNL [M3V], the protein stability index was 2.9.
Next, DCMGIDRQHIPDTYLCERCKPRNL [Q20K]: 2.68.
For DCMGIDRQHIPDTYLCERCPPRNL [Q20P], the protein stability index came out at 3.24.
With DCMGIDRQHIPDTYLCERCVPRNL [Q20V], the protein stability index was determined as 2.79.
With DCMGIDRQHIPDTYLCERCGPRNL [Q20G], the protein stability index worked out at 2.79.
Then DCMGIDRQHIPDTYLCERCMPRNL [Q20M], with 3.26; and DCMGIDRQHIPDTYLCERCHPRNL [Q20H], with 2.8.
With DCMGIDRQHIPDTYLCERCAPRNL [Q20A], the protein stability index came out at 2.81.
Then DCMGIDRQHIPDTYLCERCFPRNL [Q20F], with 2.37; and DCMGIDRQHIPDTYLCERCYPRNL [Q20Y], with 2.94; and DCMGIDRQHIPDTYLCERCSPRNL [Q20S], with 3.03.
As to DCMGSDRQHIPDTYLCERCQPRNL [I5S], the protein stability index came out at 2.54.
Consider DCMGPDRQHIPDTYLCERCQPRNL [I5P], for which the protein stability index worked out at 3.27.
Consider DCMGMDRQHIPDTYLCERCQPRNL [I5M], for which the protein stability index was determined as 3.1.
In the case of DCMGNDRQHIPDTYLCERCQPRNL [I5N], the protein stability index turned out to be 3.67.
Take DCMGTDRQHIPDTYLCERCQPRNL [I5T]: the protein stability index worked out at 3.69.
DCMGFDRQHIPDTYLCERCQPRNL [I5F]: the protein stability index is 2.85.
Then DCMGADRQHIPDTYLCERCQPRNL [I5A], with 3.7; and DCMGIDRQHIPDTNLCERCQPRNL [Y14N], with 3.15.
Turning to DCMGIDRQHIPDTTLCERCQPRNL [Y14T], the protein stability index was found to be 3.73.
Turning to DCMGIDRQHIPDTDLCERCQPRNL [Y14D], the protein stability index came to 3.83.
Take DCMGIDRQHIPDTQLCERCQPRNL [Y14Q]: the protein stability index turned out to be 3.7.
Next, DCMGIDRQHIPDTPLCERCQPRNL [Y14P]: 3.71; DCMGIDRQHIPDTELCERCQPRNL [Y14E]: 4.21.
Take DCMGIDRQHIPDTWLCERCQPRNL [Y14W]: the protein stability index stood at 3.26.
Regarding DCMGIDRQHIPDTMLCERCQPRNL [Y14M], the protein stability index was determined as 3.5.
In the case of DCMGIDRQHIPDTYLCERCQPQNL [R22Q], the protein stability index is 3.19.
With DCMGIDRQHIPDTYLCERCQPYNL [R22Y], the protein stability index amounted to 2.49.
On to DCMGIDRQHIPDTYLCERCQPGNL [R22G], for which the protein stability index worked out at 3.28.
Then DCMGIDRQHIPDTYLCERCQPMNL [R22M], with 1.86; and DCMGIDRQHIPDTYLCERCQPINL [R22I], with 2.9; and DCMGIDRQHIPDTYLCERCQPLNL [R22L], with 3.31.
Then DCMGIDRQHIPDTYLCERCQPCNL [R22C], with 3.66; and DCMGIDRQHIPDTYLCERCQPFNL [R22F], with 2.35; and DCMGIDRQHIPDTYLCERCQPRNP [L24P], with 2.64.
DCMGIDRQHIPDTYLCERCQPRNF [L24F]: the protein stability index amounted to 2.71.
For the variant DCMGIDRQHIPDTYLCERCQPRNA [L24A], the protein stability index was determined as 3.55.
On to DCMGIDRQHIPDTYLCERCQPRND [L24D], for which the protein stability index worked out at 3.88.
For the variant DCMGIDRQHIPDTYLCERCQPRNV [L24V], the protein stability index was found to be 2.84.
As to DCMGIDRQHIPDTYLCERCQPRNK [L24K], the protein stability index is 4.2.
As to DCMGIDRQHIPDTYLCERCQPRNI [L24I], the protein stability index worked out at 2.36.
Then DCMGIDKQHIPDTYLCERCQPRNL [R7K], with 2.29; and DCMGIDAQHIPDTYLCERCQPRNL [R7A], with 2.63.
For the variant DCMGIDLQHIPDTYLCERCQPRNL [R7L], the protein stability index turned out to be 2.68.
Consider DCMGIDWQHIPDTYLCERCQPRNL [R7W], for which the protein stability index is 2.4.
Next, DCMGIDGQHIPDTYLCERCQPRNL [R7G]: 3.69.
Then DCMGIDRRHIPDTYLCERCQPRNL [Q8R], with 2.5; and DCMGIDREHIPDTYLCERCQPRNL [Q8E], with 2.63; and DCMGIDRNHIPDTYLCERCQPRNL [Q8N], with 3.07.
Regarding DCMGIDRDHIPDTYLCERCQPRNL [Q8D], the protein stability index was found to be 2.27.
On to DCMGIDRCHIPDTYLCERCQPRNL [Q8C], for which the protein stability index amounted to 2.73.
With QCMGIDRQHIPDTYLCERCQPRNL [D1Q], the protein stability index turned out to be 2.41.
With HCMGIDRQHIPDTYLCERCQPRNL [D1H], the protein stability index worked out at 2.73.
ECMGIDRQHIPDTYLCERCQPRNL [D1E]: the protein stability index stood at 2.63.
Consider LCMGIDRQHIPDTYLCERCQPRNL [D1L], for which the protein stability index is 2.21.
Then PCMGIDRQHIPDTYLCERCQPRNL [D1P], with 3.3; and ICMGIDRQHIPDTYLCERCQPRNL [D1I], with 2.17.
With YCMGIDRQHIPDTYLCERCQPRNL [D1Y], the protein stability index is 1.95.
Turning to FCMGIDRQHIPDTYLCERCQPRNL [D1F], the protein stability index amounted to 1.89.
For TCMGIDRQHIPDTYLCERCQPRNL [D1T], the protein stability index was determined as 2.43.
In the case of CCMGIDRQHIPDTYLCERCQPRNL [D1C], the protein stability index worked out at 3.63.
Next, MCMGIDRQHIPDTYLCERCQPRNL [D1M]: 1.91; DCMGIDRQHIPDTYLCERCQPRWL [N23W]: 2.49.
As for DCMGIDRQHIPDTYLCERCQPRKL [N23K], the protein stability index amounted to 2.73.
As to DCMGIDRQHIPDTYLCERCQPRTL [N23T], the protein stability index was 2.61.
DCMGIDRQHIPDTYLCERCQPRCL [N23C]: the protein stability index was 1.85.
On to DCMGIDRQHIPDTYLCERCQPRGL [N23G], for which the protein stability index amounted to 3.
DCMGIDRQHIPDTYLCERCQPRQL [N23Q]: the protein stability index came to 2.62.
In the case of DCMGIDRQHIPDTYLCERCQPRSL [N23S], the protein stability index was 3.07.
Consider DCMGIDRQHIPDTYLCERCQPRYL [N23Y], for which the protein stability index turned out to be 1.94.
Turning to DCMGIDRQHIPDTYLCERCQPRHL [N23H], the protein stability index is 2.36.
For DCMGIDRQHIPDTYLCERCQPRVL [N23V], the protein stability index came to 2.
Consider DAMGIDRQHIPDTYLCERCQPRNL [C2A], for which the protein stability index is 3.09.
Then DHMGIDRQHIPDTYLCERCQPRNL [C2H], with 3.36; and DVMGIDRQHIPDTYLCERCQPRNL [C2V], with 2.77.
Next, DRMGIDRQHIPDTYLCERCQPRNL [C2R]: 3.38; DWMGIDRQHIPDTYLCERCQPRNL [C2W]: 2.21; DTMGIDRQHIPDTYLCERCQPRNL [C2T]: 3.21.
Take DIMGIDRQHIPDTYLCERCQPRNL [C2I]: the protein stability index amounted to 2.57.
Take DCMGIDRQHIPHTYLCERCQPRNL [D12H]: the protein stability index was determined as 2.48.
Consider DCMGIDRQHIPETYLCERCQPRNL [D12E], for which the protein stability index stood at 2.81.
Then DCMGIDRQHIPSTYLCERCQPRNL [D12S], with 2.38; and DCMGIDRQHIPRTYLCERCQPRNL [D12R], with 2.86; and DCMGIDRQHIPTTYLCERCQPRNL [D12T], with 2.81.
Turning to DCMGIDRQHIPFTYLCERCQPRNL [D12F], the protein stability index worked out at 2.64.
On to DCMGIDRQHIPKTYLCERCQPRNL [D12K], for which the protein stability index was found to be 1.96.
